Results on one protein are retold here after publication PMC7988011, “NAC blocks Cystatin C amyloid complex aggregation in a cell system and in skin of HCCAA patients” (Nature Communications, 2021).

“And” between values parts separate entries of the source, which are not always exact repeats. Equal values may be shown once.

One series has as its target P01034. As to the kind of experiment: non-reducing SDS-PAGE with Western blot; supernatants and cellular extracts incubated with reduced glutathione (3 mM) at 37 °C before electrophoresis; HMW species quantitated by densitometry. The note with it: other: non-reducing SDS-PAGE with Western blot. In general terms: Immunoblotting shows a protein as a band on a membrane.
Series [1] deals with the molecule itself. As to the kind of experiment: non-reducing SDS-PAGE with Western blot; lysates (1% NP-40 buffer) and supernatants of stable HEK-293T cells; 2% SDS sample buffer without reducing agent, not heated; NuPAGE 4-12% Bis-Tris; blotted with anti-cystatin C MAB1196.

B1: L68Q variant of human cystatin C (natural protein, UniProt P01034 27-146, looked up)
chain: SSPGKPPRLVGGPMDASVEEEGVRRALDFAVGEYNKASNDMYHSRALQVVRARKQIVAGVNYFLDVEQGRTTCTKTQPNLDNCPFHDQPHLKRKAFCSFQIYAVPWQGTMTLSKSTCQDA
notes: Vector pBABE-CMV-Puro; also called L68Q-hCC; hCC L68Q
Turning to B1, in the series with P01034, the “percent reduction of HMW species with 3 mM GSH (secreted fraction)” value was “≈90% reduction of the HMW in the secreted fraction”. For the same protein, the stoichiometry N (commonly the number of molecules, sites or subunits per partner or assembly) in series [1] was 2 and 3 and 4.
